Laboratory results taken from US20250163127A1.

What was measured:
[1] = target: CD28 (human) (UniProt P10747); experiment: flow cytometry, Jurkat cells (CD28)
[2] = target: PD-L1 (human); experiment: flow cytometry, CHO cells stably expressing PD-L1
[3] = target: CTLA4 (human); experiment: flow cytometry, CHO cells stably expressing CTLA4
[4] = target: human PD-1 (human) (UniProt Q15116)
Sequence of human PD-1 (human) (Q15116 25-288): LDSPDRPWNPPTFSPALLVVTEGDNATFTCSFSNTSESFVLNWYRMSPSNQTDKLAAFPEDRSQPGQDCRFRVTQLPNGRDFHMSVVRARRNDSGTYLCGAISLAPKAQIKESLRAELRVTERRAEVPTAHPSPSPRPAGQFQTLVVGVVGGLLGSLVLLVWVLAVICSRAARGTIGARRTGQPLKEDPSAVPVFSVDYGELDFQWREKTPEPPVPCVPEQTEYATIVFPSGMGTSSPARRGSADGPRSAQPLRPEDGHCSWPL

Sequence of CTLA4 (human) (chain, as listed by the source): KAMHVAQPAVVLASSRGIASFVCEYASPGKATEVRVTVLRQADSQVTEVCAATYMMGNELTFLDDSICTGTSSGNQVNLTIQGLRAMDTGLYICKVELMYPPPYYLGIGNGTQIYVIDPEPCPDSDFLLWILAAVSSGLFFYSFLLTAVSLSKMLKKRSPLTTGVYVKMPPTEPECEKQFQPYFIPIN
Sequence of PD-L1 (human) (chain, as listed by the source): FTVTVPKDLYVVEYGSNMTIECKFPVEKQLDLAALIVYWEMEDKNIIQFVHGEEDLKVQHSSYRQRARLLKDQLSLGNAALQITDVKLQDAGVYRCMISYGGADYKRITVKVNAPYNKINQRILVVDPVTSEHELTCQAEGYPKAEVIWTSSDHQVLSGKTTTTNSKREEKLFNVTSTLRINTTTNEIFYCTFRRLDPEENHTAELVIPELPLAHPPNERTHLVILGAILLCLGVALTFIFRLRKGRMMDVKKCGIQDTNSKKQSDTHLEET

B1: CD80 variant Q33L/E35D/M47L/V68M/L85Q/E88D IgV-Fc (Fc fusion)
chain: VIHVTKEVKEVATLSCGHNVSVEELAQTRIYWLKDKKMVLTMMSGDLNIWPEYKNRTIFDITNNLSIMILALRPSDEGTYECVVQKYDKDAFKREHLAEVT
- Fold change to WT [1]: 0.03 fold
- MFI at 33.3 nM [1]: 264 MFI
- Fold change to WT [2]: 15.8 fold
- MFI at 33.3 nM [2]: 126000 MFI
- Fold change to WT CD80 [3]: 0.02 fold
- MFI at 33.3 nM [3]: 3530 MFI

B2: CD80 variant Q33L/E35D/M43V/M47I/A71G IgV-Fc (Fc fusion)
chain: VIHVTKEVKEVATLSCGHNVSVEELAQTRIYWLKDKKMVLTMVSGDINIWPEYKNRTIFDITNNLSIVILGLRPSDEGTYECVVLKYEKDAFKREHLAEVT
- Fold change to WT [1]: 0.04 fold
- MFI at 33.3 nM [1]: 284 MFI
- Fold change to WT [2]: 9.82 fold
- MFI at 33.3 nM [2]: 78000 MFI
- Fold change to WT CD80 [3]: 0.08 fold
- MFI at 33.3 nM [3]: 14000 MFI

B3: CD80 variant Q33L/E35D/N48K/L85Q/L97Q IgV-Fc (Fc fusion)
chain: VIHVTKEVKEVATLSCGHNVSVEELAQTRIYWLKDKKMVLTMMSGDMKIWPEYKNRTIFDITNNLSIVILALRPSDEGTYECVVQKYEKDAFKREHQAEVT
- Fold change to WT [1]: 0.04 fold
- MFI at 33.3 nM [1]: 279 MFI
- Fold change to WT [2]: 5.69 fold
- MFI at 33.3 nM [2]: 45200 MFI
- Fold change to WT CD80 [3]: 0.01 fold
- MFI at 33.3 nM [3]: 1180 MFI

B4: CD80 variant E35D/D46E/M47V/L97Q IgV-Fc (Fc fusion)
chain: VIHVTKEVKEVATLSCGHNVSVEELAQTRIYWQKDKKMVLTMMSGEVNIWPEYKNRTIFDITNNLSIVILALRPSDEGTYECVVLKYEKDAFKREHQAEVT
- Fold change to WT [1]: 0.05 fold
- MFI at 33.3 nM [1]: 371 MFI
- Fold change to WT [2]: 2.45 fold
- MFI at 33.3 nM [2]: 19500 MFI
- Fold change to WT CD80 [3]: 1.71 fold
- MFI at 33.3 nM [3]: 305000 MFI

B5: CD80 variant H18Y/Y31H/E35D/M47V/A71G/L85Q IgV-Fc (Fc fusion)
chain: VIHVTKEVKEVATLSCGYNVSVEELAQTRIHWQKDKKMVLTMMSGDVNIWPEYKNRTIFDITNNLSIVILGLRPSDEGTYECVVQKYEKDAFKREHLAEVT
- Fold change to WT [1]: 0.04 fold
- MFI at 33.3 nM [1]: 268 MFI
- Fold change to WT [2]: 9.61 fold
- MFI at 33.3 nM [2]: 76400 MFI
- Fold change to WT CD80 [3]: 0.02 fold
- MFI at 33.3 nM [3]: 3840 MFI

B6: CD80 variant E35D/M47V/A71G/L85M/L97Q IgV-Fc (Fc fusion)
chain: VIHVTKEVKEVATLSCGHNVSVEELAQTRIYWQKDKKMVLTMMSGDVNIWPEYKNRTIFDITNNLSIVILGLRPSDEGTYECVVMKYEKDAFKREHQAEVT
- Fold change to WT [1]: 0.04 fold
- MFI at 33.3 nM [1]: 339 MFI
- Fold change to WT [2]: 7.77 fold
- MFI at 33.3 nM [2]: 61700 MFI
- Fold change to WT CD80 [3]: 1.34 fold
- MFI at 33.3 nM [3]: 239000 MFI

B7: variant PD-L2 IgV Q82R/V89D Fc fusion (Fc fusion)
chain: LFTVTVPKELYIIEHGSNVTLECNFDTGSHVNLGAITASLQKVENDTSPHRERATLLEEQLPLGKASFHIPQVQVRDEGQYRCIIIYGDAWDYKYLTLKVKA
- IFN gamma levels pg/mL (MLR) [4]: 1620 pg/mL

B8: variant PD-L2 IgV H15Q/S39I/S67L/V89D Fc fusion (Fc fusion)
chain: LFTVTVPKELYIIEQGSNVTLECNFDTGSHVNLGAITAILQKVENDTSPHRERATLLEEQLPLGKALFHIPQVQVRDEGQYQCIIIYGDAWDYKYLTLKVKA
- IFN gamma levels pg/mL (MLR) [4]: 1230 pg/mL

B9: variant PD-L2 IgV I13V/Q72H/R76G/I86T Fc fusion (Fc fusion)
chain: LFTVTVPKELYIVEHGSNVTLECNFDTGSHVNLGAITASLQKVENDTSPHRERATLLEEQLPLGKASFHIPHVQVGDEGQYQCIITYGVAWDYKYLTLKVKA
- IFN gamma levels pg/mL (MLR) [4]: 1950 pg/mL

B10: variant PD-L2 IgV I13V/S67L/V89D Fc fusion (Fc fusion)
chain: LFTVTVPKELYIVEHGSNVTLECNFDTGSHVNLGAITASLQKVENDTSPHRERATLLEEQLPLGKALFHIPQVQVRDEGQYQCIIIYGDAWDYKYLTLKVKA
- IFN gamma levels pg/mL (MLR) [4]: 868 pg/mL

B11: variant PD-L2 IgV I13V/H15Q/T47A/Q72H/R76G Fc fusion (Fc fusion)
chain: LFTVTVPKELYIVEQGSNVTLECNFDTGSHVNLGAITASLQKVENDASPHRERATLLEEQLPLGKASFHIPHVQVGDEGQYQCIIIYGVAWDYKYLTLKVKA
- IFN gamma levels pg/mL (MLR) [4]: 1470 pg/mL

B12: variant PD-L2 IgV S67L/V89D Fc fusion (Fc fusion)
chain: LFTVTVPKELYIIEHGSNVTLECNFDTGSHVNLGAITASLQKVENDTSPHRERATLLEEQLPLGKALFHIPQVQVRDEGQYQCIIIYGDAWDYKYLTLKVKA
- IFN gamma levels pg/mL (MLR) [4]: 1230 pg/mL

B13: variant PD-L2 IgV I13V/S39I/E44D/Q82R/V89D Fc fusion (Fc fusion)
chain: LFTVTVPKELYIVEHGSNVTLECNFDTGSHVNLGAITAILQKVDNDTSPHRERATLLEEQLPLGKASFHIPQVQVRDEGQYRCIIIYGDAWDYKYLTLKVKA
- IFN gamma levels pg/mL (MLR) [4]: 936 pg/mL

B14: variant PD-L2 IgV H15Q/S67L/R76G Fc fusion (Fc fusion)
chain: LFTVTVPKELYIIEQGSNVTLECNFDTGSHVNLGAITASLQKVENDTSPHRERATLLEEQLPLGKALFHIPQVQVGDEGQYQCIIIYGVAWDYKYLTLKVKA
- IFN gamma levels pg/mL (MLR) [4]: 1430 pg/mL

B15: variant PD-L2 IgV S67L/I86T Fc fusion (Fc fusion)
chain: LFTVTVPKELYIIEHGSNVTLECNFDTGSHVNLGAITASLQKVENDTSPHRERATLLEEQLPLGKALFHIPQVQVRDEGQYQCIITYGVAWDYKYLTLKVKA
- IFN gamma levels pg/mL (MLR) [4]: 1020 pg/mL

B16: variant PD-L2 IgV N32D/S67L/V89D Fc fusion (Fc fusion)
chain: LFTVTVPKELYIIEHGSNVTLECNFDTGSHVDLGAITASLQKVENDTSPHRERATLLEEQLPLGKALFHIPQVQVRDEGQYQCIIIYGDAWDYKYLTLKVKA
- IFN gamma levels pg/mL (MLR) [4]: 1190 pg/mL

B17: variant PD-L2 IgV H15Q/R76G/I85F Fc fusion (Fc fusion)
chain: LFTVTVPKELYIIEQGSNVTLECNFDTGSHVNLGAITASLQKVENDTSPHRERATLLEEQLPLGKASFHIPQVQVGDEGQYQCIFIYGVAWDYKYLTLKVKA
- IFN gamma levels pg/mL (MLR) [4]: 1730 pg/mL

B18: variant PD-L2 IgV H15Q/E44D/R76G/I85F Fc fusion (Fc fusion)
chain: LFTVTVPKELYIIEQGSNVTLECNFDTGSHVNLGAITASLQKVDNDTSPHRERATLLEEQLPLGKASFHIPQVQVGDEGQYQCIFIYGVAWDYKYLTLKVKA
- IFN gamma levels pg/mL (MLR) [4]: 1390 pg/mL

B19: variant PD-L2 IgV E59G/Q82R Fc fusion (Fc fusion)
chain: LFTVTVPKELYIIEHGSNVTLECNFDTGSHVNLGAITASLQKVENDTSPHRERATLLEGQLPLGKASFHIPQVQVRDEGQYRCIIIYGVAWDYKYLTLKVKA
- IFN gamma levels pg/mL (MLR) [4]: 1510 pg/mL

B20: variant PD-L2 IgV H15Q/N32D/S67L/V89D Fc fusion (Fc fusion)
chain: LFTVTVPKELYIIEQGSNVTLECNFDTGSHVDLGAITASLQKVENDTSPHRERATLLEEQLPLGKALFHIPQVQVRDEGQYQCIIIYGDAWDYKYLTLKVKA
- IFN gamma levels pg/mL (MLR) [4]: 1290 pg/mL

B21: variant PD-L2 IgV I13V/H15Q/E44D/V89D Fc fusion (Fc fusion)
chain: LFTVTVPKELYIVEQGSNVTLECNFDTGSHVNLGAITASLQKVDNDTSPHRERATLLEEQLPLGKASFHIPQVQVRDEGQYQCIIIYGDAWDYKYLTLKVKA
- IFN gamma levels pg/mL (MLR) [4]: 1380 pg/mL

B22: variant PD-L2 IgV H15Q/S67L/Q72H/R76G/V89D Fc fusion (Fc fusion)
chain: LFTVTVPKELYIIEQGSNVTLECNFDTGSHVNLGAITASLQKVENDTSPHRERATLLEEQLPLGKALFHIPHVQVGDEGQYQCIIIYGDAWDYKYLTLKVKA
- IFN gamma levels pg/mL (MLR) [4]: 1060 pg/mL

B23: variant PD-L2 IgV S39I/V89D Fc fusion (Fc fusion)
chain: LFTVTVPKELYIIEHGSNVTLECNFDTGSHVNLGAITAILQKVENDTSPHRERATLLEEQLPLGKASFHIPQVQVRDEGQYQCIIIYGDAWDYKYLTLKVKA
- IFN gamma levels pg/mL (MLR) [4]: 1310 pg/mL

B24: variant PD-L2 IgV E44D/V89D/W91R Fc fusion (Fc fusion)
chain: LFTVTVPKELYIIEHGSNVTLECNFDTGSHVNLGAITASLQKVDNDTSPHRERATLLEEQLPLGKASFHIPQVQVRDEGQYQCIIIYGDARDYKYLTLKVKA
- IFN gamma levels pg/mL (MLR) [4]: 1560 pg/mL

B25: variant PD-L2 IgV E44D/S67L/Q72H/Q82R/V89D Fc fusion (Fc fusion)
chain: LFTVTVPKELYIIEHGSNVTLECNFDTGSHVNLGAITASLQKVDNDTSPHRERATLLEEQLPLGKALFHIPHVQVRDEGQYRCIIIYGDAWDYKYLTLKVKA
- IFN gamma levels pg/mL (MLR) [4]: 1280 pg/mL

B26: variant PD-L2 IgV I13V/H15Q/Q82R Fc fusion (Fc fusion)
chain: LFTVTVPKELYIVEQGSNVTLECNFDTGSHVNLGAITASLQKVENDTSPHRERATLLEEQLPLGKASFHIPQVQVRDEGQYRCIIIYGVAWDYKYLTLKVKA
- IFN gamma levels pg/mL (MLR) [4]: 1430 pg/mL

B27: variant PD-L2 IgV H15Q/S39I/I86T Fc fusion (Fc fusion)
chain: LFTVTVPKELYIIEQGSNVTLECNFDTGSHVNLGAITAILQKVENDTSPHRERATLLEEQLPLGKASFHIPQVQVRDEGQYQCIITYGVAWDYKYLTLKVKA
- IFN gamma levels pg/mL (MLR) [4]: 1420 pg/mL

B28: variant PD-L2 IgV H15Q/C23S/I86T Fc fusion (Fc fusion)
chain: LFTVTVPKELYIIEQGSNVTLESNFDTGSHVNLGAITASLQKVENDTSPHRERATLLEEQLPLGKASFHIPQVQVRDEGQYQCIITYGVAWDYKYLTLKVKA
- IFN gamma levels pg/mL (MLR) [4]: 1850 pg/mL

B29: variant PD-L2 IgV H15Q/S67L/I86T Fc fusion (Fc fusion)
chain: LFTVTVPKELYIIEQGSNVTLECNFDTGSHVNLGAITASLQKVENDTSPHRERATLLEEQLPLGKALFHIPQVQVRDEGQYQCIITYGVAWDYKYLTLKVKA
- IFN gamma levels pg/mL (MLR) [4]: 1030 pg/mL

B30: variant PD-L2 IgV H15Q/T47A/Q82R Fc fusion (Fc fusion)
chain: LFTVTVPKELYIIEQGSNVTLECNFDTGSHVNLGAITASLQKVENDASPHRERATLLEEQLPLGKASFHIPQVQVRDEGQYRCIIIYGVAWDYKYLTLKVKA
- IFN gamma levels pg/mL (MLR) [4]: 1320 pg/mL

B31: variant PD-L2 IgV I13V/H15Q/S39I/E44D/S67L Fc fusion (Fc fusion)
chain: LFTVTVPKELYIVEQGSNVTLECNFDTGSHVNLGAITAILQKVDNDTSPHRERATLLEEQLPLGKALFHIPQVQVRDEGQYQCIIIYGVAWDYKYLTLKVKA
- IFN gamma levels pg/mL (MLR) [4]: 1260 pg/mL

B32: variant PD-L2 IgV H15Q/T47A/Q72H/R76G Fc fusion (Fc fusion)
chain: LFTVTVPKELYIIEQGSNVTLECNFDTGSHVNLGAITASLQKVENDASPHRERATLLEEQLPLGKASFHIPHVQVGDEGQYQCIIIYGVAWDYKYLTLKVKA
- IFN gamma levels pg/mL (MLR) [4]: 1460 pg/mL

B33: variant PD-L2 IgV H15Q/Q72H/Q74R/R76G/I86T Fc fusion (Fc fusion)
chain: LFTVTVPKELYIIEQGSNVTLECNFDTGSHVNLGAITASLQKVENDTSPHRERATLLEEQLPLGKASFHIPHVRVGDEGQYQCIITYGVAWDYKYLTLKVKA
- IFN gamma levels pg/mL (MLR) [4]: 934 pg/mL
